Assay results from the NTF2 design screens of Basanta et al. (2020).

Experiment: protease stability score; higher = more stable; yeast display proteolysis, trypsin and chymotrypsin;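 also: log10 excess protease needed over predicted unfolded state with 0 meaning unfolded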

Sequence | protease stability score
DEEAHELWKKWQEAFKTGDPEQLHEMADKDARLRIGNKEIHGREKAVKQLVDERKEMHIDYRIRSYKFEGNRLTFTAHANARVNGQPYRYTVKMQFSFSNGRLKELQIRIPEEVMQELRN | 0.791
DEDAVKLAQEVWKAMHTGDEDKFVKLVDPNARVKIGDKDIHGKDDIKKQLHNRNREIRVRLKHIEIDQNGDQARIHMRFQMTHDGQPRDQSATATMRAQGDKLKSISVTNHG | -0.206
DEEDIARQLAEDFRKVLENGDPDEMRKNADKDARLKVGDKQVHGRDEMVKYFEKLNKEYDRVHIHIKSVSAQGDKLRVEIQVVWNSNGKNDKTTYDLVFQHDDGHVKLLEIRES | 0.539
DEDDQVRKILETQDRAMRTGDEDTYVNQADKDVRVKVGDKKLRGREEWKKEVTRIIERVDHFDVHIDHIDHQGDKIVIRQVIVLEHDGRRDSKTYNMTARNKNGRVKWKEVTEK | -0.205
DEDKMLKIAQEMAEAVVNGNVEQMKKQAHEGVQVHVGDEEVHGPDQLEEYVKKFKDQGVEVHYKETEHKGDTVTLKTTAVLGDAQVEFEAHYVVKGDKLQRFEVKLNKEQLKDFRKS | 0.242
DEQEKAERLAKTAVEAYETNDPEVMRRLLPPDAEVRVGDKEIHGREENSRQVQRELDRVDRVQVSMKTVHVDGNKLNVVLELRVEHDGETDTREIVIIFDVRNGTIQAQEINIG | -0.05
DHENKKRVEEFLKALERNDPERLNHLMDPNVNIIVGDQRFHGREDAARNMAHEQKEQRFEVEDYRISVHGDDVRVEMIVQAEINGRPFRFTLIVYARIHDGRIQTIEFRIDEDEKRRMDQ | 0.895
DDSQVRSALEQAKTGNFQNLRNQLDPNAHVRVGDKTLNGKEEAVSYMQEFRDQVDRIRVDSVTTQGEKAVADLTVVINGHRVRFELVVNIRNGRAREVELRSTSEEIKKHLEHLDS | 0.481
DETALRIAEDWFRALQNGNPERMQENVDPNARVQIGDKELHGREQIHELAQKIKEEMRIEVNITHVDVHGEHLRLEFDIRVDINGKPVTNHNTAEFNVENGSIKHISFDIDPRQLNKMQK | 0.746
DEDSHKKLLEEMKDILNHGNFKNMLELADKNVRMQVGDKQYTGHSEFEDFLEHQRRQIDHLQVTDFKVSGENLVLTATANVNGKHVTIRFVVFFENGKMVRMEVDPSFQKQLES | 0.87
DEEEQQDHAHTLKDALTYGNEQEFRHMADENARINYGEFDYHGREQFQDVIRRIMEQADHVRVDHVQVHGEHVDIRLKVKFNGQTQRWVIIVRFHNGRIKHLSADTQ | 0.499
DEKRQQDQAKKIADALSTGDEDQFLQNMDPNAHVRVGDKTFHGRDDVRRMLREVNEHVDEINVHDVSVHNGQVDAVLVWEHNGRKQRKKVVVDRHNGRVHSVEIRDQ | -0.189
DEEAQKHLREFFKNQETGDPDKLMEMVDENVHWQVGDKTIEGRDTMKQDFDRRRKELRYHVDIKKVNAHNGRIRARATFHNEHNGKPKSFQAIVVAVITNGRIKSIHVQKRQ | -0.037
DEDMYEQYESILHNERTGNEDEWVENIDPNARIRVGDKEVHGMEDNAREKRRHQEEQRVHFDIKRYSIHNGELDVTAKMRRDVNGQPAQDDVKVRIVVENGRIKEQDQDFDEDDDRRQKK | -0.037
DEDLVERVQDLLEAERENDEDTVSKMVDPNVKFSYGNRELHGREQWTKHVAEKQKQMRIQIDIDSYSVQGNHATFTAKITVHINGKPMSDTVTFQIVFSNGKVEEVRMRIDPRFQREVES | 0.016
DKHRVEHAKRILEIWTNGDEKSVKDLFDPNVRVDVGDKRITGREQLAREWKRRRDEMEWSLTVHEYKDDPNRVDINVHFNRNKNGRPRTQQQHLRIDMDNGSVRQLRIEDSK | 0.216
DEDDANQVERDLRENDWDQLVRNFDEDARIQIGDYTIHGREDYKRWLEEVEKQVDKVEIKQVDIHGNNIVVDYRQQVNGQHVRAIMVITMDNGKIKEMHVDVRSEDAKRAYERIFR | 0.525
DEKRMVELMRKIFKTIINGNEDEVKKILPPHGEYHYIDKKFEGKEVAEYIIKLVKKMGAEAKVKEQEVKGDTAKATFQYRKGDKTVQTKAEVKYEGDKMKKARVENTDEVRKVVHQG | -0.024
EDEVRQRAEEFLKAWERGDPETLMRMADPNARFKIGDKEVHGREDYHREHKRQRDQMRYRLHSYEVSASGDKVHVDVSYNMNNNGQPNNSRQTFSARVDNGKIKELNVQSTG | -0.061
DQEEAKEVAEKVMKAVENGDEKKLKDLIDEGVKYEVGDTQQHGPEVAVKVVQYLQKKGVRLEFKEVQHHGNQVHTKIEYQNGDETDTVEATAEVKGGKIDQVQIHASETVVKWIKHG | 0.088
DEEDLDTVAQTFVTALKQGDPHQVMKLADEDVKATVGDERVHGSQHVNELIKRFRRNVDHVDIEDYRIHNGKIRMRVRLTVNGRTQNLNMVLIVRNGRLKMFKIDPQDVRQFHG | 0.972
DEKRYTEIAEKVFKYARNGNEEEMRKDGMPDLKYKYIDKEYEGEDAMRFVVELVKKIGAEDRQEKQEVKGNTAEAVFVYHNGDETVTTKAQVHYEGDKVKEVRVELTDEVKKVIKKG | 0.135
DEDQQKEVEKMLQDRRTNNPERIRKMFDPNARVQVGDKTINGREDAKRYAEEERDQIRVEYKSINISVHNGRVQVDVRARFNHNGKPETRQFNLDASIHNGRIKEFQQRDDK | -0.163
DEKEKAKKMFEKWHDVWRTNDPKKMNELADKDARINVGEKNYHGREHVEKIWRDLMERIDHVQLRVQTITSTGDKVEIRATVVIDHNGKQDEDTYVYVFQIDNGTVSFVQVRQS | 0.576
DEDSEAHKLLRELEKVLSTGDEDKMRRLADPNASIRIGDTQIRGRTQIQDHVKRHKEHVDKVSIDVKEVTAQGNKANMKYVIRVQINGRTHQEQVRVDVDLQGDKFKIKQWTEG | 0.055
